From the Immune Epitope Database (IEDB)

Columns and labels:
HLA-B*15:02 = assay: IEDB peptide-MHC binding, purified MHC/competitive/fluorescence; filed as Kd, often an IC50 or EC50 that approximates it; ≥ and ≤ were set here for values at or beyond the usual limits of such assays
HLA-C*12:03 = assay: IEDB peptide-MHC binding, purified MHC/direct/fluorescence; filed as Kd, often an IC50 or EC50 that approximates it; ≥ and ≤ were set here for values at or beyond the usual limits of such assays; settings: source organism: Francisella tularensis subsp. tularensis FSC198
HLA-A*02:01 = assay: IEDB peptide-MHC binding, purified MHC/competitive/fluorescence; filed as Kd, often an IC50 or EC50 that approximates it; ≥ and ≤ were set here for values at or beyond the usual limits of such assays
HLA-A*02:03 = assay: as above
HLA-A*02:11 = assay: as above
HLA-A*02:12 = assay: as above
HLA-A*02:16 = assay: as above; settings: source organism: Shigella dysenteriae Sd197
HLA-A*02:19 = assay: as above
HLA-A*03:01 = assay: as above
HLA-A*23:01 = assay: as above
HLA-A*24:03 = assay: as above
HLA-A*26:01 = assay: as above
HLA-A*29:02 = assay: as above
HLA-B*15:01 = assay: as above
HLA-B*15:17 = assay: as above
HLA-B*18:01 = assay: as above
HLA-B*27:03 = assay: as above
HLA-B*39:01 = assay: as above
HLA-B*46:01 [1] = assay: as above
HLA-B*51:01 = assay: as above
HLA-B*57:01 = assay: as above
HLA-A*26:03 = assay: IEDB peptide-MHC binding, purified MHC/direct/fluorescence; filed as Kd, often an IC50 or EC50 that approximates it; ≥ and ≤ were set here for values at or beyond the usual limits of such assays; settings: source organism: Burkholderia mallei ATCC 23344
HLA-A*24:02 = assay: IEDB peptide-MHC binding, purified MHC/competitive/fluorescence; filed as Kd, often an IC50 or EC50 that approximates it; ≥ and ≤ were set here for values at or beyond the usual limits of such assays; settings: source organism: Yersinia pestis Nepal516
HLA-A*32:07 = assay: as above; settings: source organism: Yersinia pestis Nepal516
HLA-A*32:15 = assay: as above; settings: source organism: Yersinia pestis Nepal516
HLA-A*68:23 = assay: as above; settings: source organism: Yersinia pestis Nepal516
HLA-B*15:42 = assay: as above; settings: source organism: Yersinia pestis Nepal516
HLA-B*40:13 = assay: as above; settings: source organism: Yersinia pestis Nepal516
HLA-B*45:06 = assay: as above; settings: source organism: Yersinia pestis Nepal516
HLA-B*58:01 = assay: as above; settings: source organism: Yersinia pestis Nepal516
HLA-B*83:01 = assay: as above; settings: source organism: Yersinia pestis Nepal516
HLA-C*06:02 = assay: as above; settings: source organism: Yersinia pestis Nepal516
HLA-A*11:01 = assay: IEDB peptide-MHC binding, purified MHC/direct/fluorescence; filed as Kd, often an IC50 or EC50 that approximates it; ≥ and ≤ were set here for values at or beyond the usual limits of such assays; settings: source organism: Burkholderia mallei
HLA-A*31:01 = assay: as above; settings: source organism: Burkholderia mallei
HLA-A*68:02 = assay: as above; settings: source organism: Burkholderia mallei
HLA-A*69:01 = assay: as above; settings: source organism: Burkholderia mallei
HLA-B*07:02 = assay: as above; settings: source organism: Burkholderia mallei
HLA-B*40:01 = assay: as above; settings: source organism: Burkholderia mallei
HLA-B*46:01 [2] = assay: as above; settings: source organism: Burkholderia mallei
HLA-B*48:01 = assay: as above; settings: source organism: Burkholderia mallei
HLA-A*01:01 = assay: IEDB peptide-MHC binding, purified MHC/competitive/fluorescence; filed as Kd, often an IC50 or EC50 that approximates it; ≥ and ≤ were set here for values at or beyond the usual limits of such assays; settings: source organism: Escherichia coli 536
HLA-A*02:06 = assay: as above; settings: source organism: Escherichia coli 536
HLA-A*26:02 = assay: as above; settings: source organism: Escherichia coli 536
HLA-B*27:05 = assay: as above; settings: source organism: Escherichia coli 536
[3] = source organism: Shigella dysenteriae Sd197
[4] = source organism: Mycobacterium tuberculosis variant bovis BCG str. Pasteur 1173P2
[5] = source organism: Yersinia pestis Nepal516
[6] = source organism: Escherichia coli 536

In the case of ILKEYPQVY, the Kd (HLA-B*15:02; source organism: Encephalitozoon cuniculi GB-M1) is reported as 0.155 µM.
With MIYNSFNPY the Kd (HLA-C*12:03) was ≥ 20 µM and the Kd (HLA-B*15:02; source organism: Francisella tularensis subsp. tularensis FSC198) was ≥ 20 µM.
In the case of IEDDEIIWV, the Kd (HLA-A*02:01; [3]) is reported as ≥ 20 µM, the Kd (HLA-A*02:03; [3]) is reported as ≥ 20 µM and the Kd (HLA-A*02:11; [3]) is reported as 0.0002 µM. For the same sequence, the Kd (HLA-A*02:12; [3]) was ≥ 20 µM, the Kd (HLA-A*02:16) was ≥ 20 µM and the Kd (HLA-A*02:19; [3]) was ≥ 20 µM. The Kd (HLA-A*03:01; [3]) was ≥ 20 µM, the Kd (HLA-A*23:01; [3]) was ≥ 20 µM and the Kd (HLA-A*24:03; [3]) was ≥ 20 µM. The Kd (HLA-A*26:01; [3]) was ≥ 20 µM, the Kd (HLA-A*29:02; [3]) was ≥ 20 µM and the Kd (HLA-B*15:01; [3]) was ≥ 20 µM. For the same sequence, the Kd (HLA-B*15:17; [3]) was ≥ 20 µM, the Kd (HLA-B*18:01; [3]) was ≥ 20 µM and the Kd (HLA-B*27:03; [3]) was ≥ 20 µM. For the same sequence, the Kd (HLA-B*39:01; [3]) was ≥ 20 µM, the Kd (HLA-B*46:01 [1]; [3]) was ≥ 20 µM and the Kd (HLA-B*51:01; [3]) was ≥ 20 µM. For the same sequence, the Kd (HLA-B*57:01; [3]) was ≥ 20 µM.
Work on DIIGGPCAH yielded a Kd (HLA-A*26:03) of 2 µM.
In the case of AEDLADHHV, the Kd (HLA-A*02:01; [4]) is reported as ≥ 20 µM, the Kd (HLA-A*02:03; [4]) is reported as ≥ 20 µM and the Kd (HLA-A*02:11; [4]) is reported as 0.0131 µM. For the same sequence, the Kd (HLA-A*02:12; [4]) was ≥ 20 µM, the Kd (HLA-A*02:19; [4]) was ≥ 20 µM and the Kd (HLA-A*03:01; [4]) was ≥ 20 µM. The Kd (HLA-A*23:01; [4]) was ≥ 20 µM, the Kd (HLA-A*24:03; [4]) was ≥ 20 µM and the Kd (HLA-A*26:01; [4]) was ≥ 20 µM. The Kd (HLA-A*29:02; [4]) was ≥ 20 µM, the Kd (HLA-B*15:01; [4]) was ≥ 20 µM and the Kd (HLA-B*15:17; [4]) was ≥ 20 µM. For the same sequence, the Kd (HLA-B*18:01; [4]) was ≥ 20 µM, the Kd (HLA-B*27:03; [4]) was ≥ 20 µM and the Kd (HLA-B*39:01; [4]) was ≥ 20 µM. The Kd (HLA-B*46:01 [1]; [4]) was ≥ 20 µM, the Kd (HLA-B*51:01; [4]) was ≥ 20 µM and the Kd (HLA-B*57:01; [4]) was ≥ 20 µM.
MLYPLLWMF was tested, and the Kd (HLA-A*02:01; [5]) was 0.169 µM, the Kd (HLA-A*24:02) was 0.0377 µM and the Kd (HLA-A*32:07) was 0.599 µM. The Kd (HLA-A*32:15) was 0.155 µM, the Kd (HLA-A*68:23) was 0.968 µM and the Kd (HLA-B*15:01; [5]) was 0.406 µM. The Kd (HLA-B*15:42) was ≥ 5 µM, the Kd (HLA-B*40:13) was 3.5 µM and the Kd (HLA-B*45:06) was ≥ 5 µM. The Kd (HLA-B*58:01) was 2.06 µM, the Kd (HLA-B*83:01) was ≥ 5 µM and the Kd (HLA-C*06:02) was 3.57 µM.
In the case of KLYPNVDFY, the Kd (HLA-A*11:01) is reported as 0.225 µM, the Kd (HLA-A*31:01) is reported as 3.63 µM and the Kd (HLA-A*68:02) is reported as ≥ 20 µM. The Kd (HLA-A*69:01) was ≥ 20 µM, the Kd (HLA-B*07:02) was ≥ 20 µM and the Kd (HLA-B*40:01) was ≥ 20 µM. For the same sequence, the Kd (HLA-B*46:01 [2]) was ≥ 20 µM, the Kd (HLA-B*48:01) was ≥ 20 µM and the Kd (HLA-A*01:01) was 3.47 µM. For the same sequence, the Kd (HLA-A*02:01; [6]) was ≥ 20 µM, the Kd (HLA-A*02:06) was 1.6 µM and the Kd (HLA-A*26:01; [6]) was ≥ 20 µM. The Kd (HLA-A*26:02) was ≥ 20 µM, the Kd (HLA-B*15:01; [6]) was 0.107 µM and the Kd (HLA-B*15:17; [6]) was 0.207 µM. For the same sequence, the Kd (HLA-B*18:01; [6]) was ≥ 20 µM and the Kd (HLA-B*27:05) was ≥ 20 µM.
